Source: US11453711B2, “Fusion proteins of GLP-1 and GDF15 and conjugates thereof” (BEIJING QL BIOPHARMACEUTICAL CO., LTD., priority 2019, dated 2022)

Key:
[1] = Body weight and food intake in C57BL/6 mice, fusion protein conjugates, 30 nmol/kg daily 10 days; type: in vivo
Outline: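 Male C57BL/6 mice received fusion protein conjugates by daily subcutaneous injection, with dosing running from Day 1 to Day 10. Body weight was recorded daily per animal and food intake daily per group. Body weight reduction was expressed relative to vehicle percent loss from Day 1. Cumulative food intake reduction was expressed as percent decrease versus vehicle.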

[2] = Efficacy in DIO mice, daily sc 28 days; type: in vivo, DIO male C57BL/6 mice
Procedure: FIGS. 6A-6E show In vivo efficacy in DIO mice. To evaluate the body weight, food intake and glucose effects of the fusion proteins, 17 week old DIO mice (C57BL/6 mice on high fat diet for 13 weeks) were dosed everyday subcutaneously with different concentrations of proteins for 28 days. […] FIGS. 6D and 6E show body weight change with dose titrations of MLC089 and MLC093 at 3, 10 and 30 nmol/kg. Data are expressed as mean values and standard error (SEM) for FIGS. 6A, 6C, 6D and 6E. n=5 for each treatment group. For FIG. 6B, a pooled food intake was measured for each treatment group.
17 week old DIO male C57BL/6 mice (˜45 g) were injected everyday subcutaneously with designated proteins (i.e., MLC089, MLC093) for 28 days. Food intake and body weight were measured daily and five animals were used for each treatment group. Fasting glucose was also monitored on designated days. Body weight and glucose were monitored for each individual animal, but food intake for each group animals was measured together. Day 1 and Day 28 are first day and last day of molecule dosage. % BW loss=100*(BW on Day n-BW on Day 1)/(BW on Day 1). Cumulative food intake on Day n represents sum of food intake from Day 1 to Day n. Terminal blood was collected and EDTA-2K plasma was prepared and frozen at −80 C for biomarker measurement. Liver was also collected and frozen in liquid nitrogen and store at −80 C. Data are indicated as mean values and standard error (SEM) or pooled values.

[3] = Efficacy in spontaneously obese cynomolgus monkeys, sc every three days for 49 days; type: in vivo; conditions: obese monkeys, 1, 3 and 10 nmol/kg sc every three days
Procedure: FIGS. 10A-10B show In vivo efficacy in obese monkey. Naïve male spontaneously obese cynomolgus monkeys were injected every three days subcutaneously with designated protein MLC093 with different concentrations for 49 days.
Naïve male spontaneously obese cynomolgus monkeys with BMI>40 kg/m^2 were injected every three days subcutaneously with designated protein MLC093 for 49 days. Body weight was measured once a week and food intake was measured daily for each monkey. Six animals were used for vehicle or MLC093 1 nmol/kg treamment group and seven animals were used for MLC093 3 nmol/kg or MLC093 10 nmol/kg treamment group. Day 1 and Day 49 are first day and last day of molecule dosage. % BW loss=100*(BW on Day n-BW on Day 1)/(BW on Day 1). Cumulative food intake on Day n represents sum of food intake from Day 1 to Day n. Data are indicated as mean values and standard error (SEM) or pooled values.

[4] = Stability study: SEC-HPLC (% HMW, % LMW), RP-UPLC and LC/MS after 2 weeks storage; type: physicochemical
Procedure: To test the stability, the different conjugated fusion proteins were formulated in buffers with different compositions (pH6, 7, 7.4 and 8.0) and stored at 4° C. and 37° C. or 40° C. for 2 weeks. The % High Molecular Weight aggregate (HMW) and % Low Molecular Weight (LMW) were analyzed by size exclusion chromatography (SEC)-HPLC. The concentration and modifications were analyzed by reverse phase (RP)-UPLC and LC/MS.

[5] = PK study in non-human primates, single sc dose 5 nmol/kg, plasma ELISA; conditions: monkey, single sc dose 5 nmol/kg
[6] = Pharmacokinetic measurement in mouse, single sc dose 30 nmol/kg, plasma ELISA
Procedure: Each fusion protein was injected subcutaneously into C57BL/6 mice (n=3/group) once and plasma samples were collected at designed time points and analyzed by ELISA method. Plasma concentrations are indicated as mean values and standard error (SEM).
6-8 week old male C57BL/6 mice were administrated in a single subcutaneous dose of 30 nmol/kg of the fusion protein conjugates or unconjugated fusion proteins (i.e., MLC002, MLC004, MLC005, MLC006, MLC007, MLC008, MLC009, MLC013, MLC017, MLC047, MLC074, MLC075, MLC089, MLC093, MLC003 and MLC019) (n=3/group). Plasma samples were collected pre-dose (−5 min), 0.5 hr, 1 hr, 2 hr, 4 hr, 6 hr, 8 hr, 12 hr, 24 hr, 48 hr and 72 hr after the injection. The concentrations of the fusion protein conjugates in the plasma were measured by an ELISA assay which has immunoreactivity towards both GDF15 and intact N-terminal of GLP-1. Based on the graph showing plasma concentration of each protein versus time after subcutaneous injection, the pharmacokinetic parameters (including Tmax, Cmax, T1/2, AUC) were calculated by WinNonlin software.

B1: MLC093: fusion polypeptide SEQ ID NO: 381 conjugated with Moiety B at 33C of Linker (conjugate)
chain: HGEGTFTSDVSSYLEEQAAKEFIAWLVRGGGGAQPGAQPGAQPGAQPGAQPGAQPGAQPGAQPCQEPGAQPGQEPGAQPGQEPGAQPGQEPGAQPGQEPGAQPGQEPGAQPARQGDHCPLGPGRCCRLHTVRASLEDLGWADWVLSPREVQVTMCIGACPSQFRAANLHAQIKTSLHRLKPDTVPAPCCVPASYNPMVLIQKTDTGVSLQTYDDLLAKDCHCI
modifications: Moiety B conjugated at linker Cys33
For B1, the “Body weight reduction at 30 nmol/kg (% reduction compared to vehicle)(Day11)” value [1] was 26.2%, the “Cumulative food intake reduction at 30 nmol/kg (% reduction compared to vehicle)(Day11)” value [1] was 43.8% and the “body weight reduction efficacy” value ([2]; DIO mice, 30 nmol/kg daily 28 days, FIG. 6A) was “much better body weight reduction efficacy than Semaglutide and GDF15 derivative (MLC014)”. For the same molecule, the “dose dependence of body weight reduction” value ([2]; DIO mice, 3, 10 and 30 nmol/kg, FIGS. 6D and 6E) was “dose dependent efficacy on body weight reduction”, the fasting glucose ([2]; DIO mice, FIG. 6C) was “reached similar level to Semaglutide” and the efficacy ([2]; DIO study, FIG. 6) was “better efficacy than Semaglutide and GDF15 derivative (MLC014)”. For the same molecule, the body weight loss [3] was “good efficacy on body weight loss and food intake suppression”, the food intake suppression [3] was “good efficacy on body weight loss and food intake suppression” and the HMW % ([4]; 4.65 mg/mL at 4° C., Day 0) was 0%. It also gave an LMW % ([4]; 4.65 mg/mL at 4° C., Day 0) of 0.43%, a Main peak % ([4]; 4.65 mg/mL at 4° C., Day 0) of 99.56% and an HMW % ([4]; 4.65 mg/mL at 4° C., Day 7) of 0%. The LMW % ([4]; 4.65 mg/mL at 4° C., Day 7) was 0.51%, the Main peak % ([4]; 4.65 mg/mL at 4° C., Day 7) was 99.46% and the HMW % ([4]; 4.65 mg/mL at 4° C., Day 14) was 0%. It also gave an LMW % ([4]; 4.65 mg/mL at 4° C., Day 14) of 0.39%, a Main peak % ([4]; 4.65 mg/mL at 4° C., Day 14) of 99.6% and an HMW % ([4]; 4.65 mg/mL at 37° C., Day 0) of 0%. It also gave an LMW % ([4]; 4.65 mg/mL at 37° C., Day 0) of 0.43%, a Main peak % ([4]; 4.65 mg/mL at 37° C., Day 0) of 99.56% and an HMW % ([4]; 4.65 mg/mL at 37° C., Day 7) of 0.53%. It also gave an LMW % ([4]; 4.65 mg/mL at 37° C., Day 7) of 0.56%, a Main peak % ([4]; 4.65 mg/mL at 37° C., Day 7) of 98.86% and an HMW % ([4]; 4.65 mg/mL at 37° C., Day 14) of 0.8%. For the same molecule, the LMW % ([4]; 4.65 mg/mL at 37° C., Day 14) was 0.53%, the Main peak % ([4]; 4.65 mg/mL at 37° C., Day 14) was 98.6% and the HMW % ([4]; 20 mg/mL at 4° C., Day 0) was 0%. For the same molecule, the LMW % ([4]; 20 mg/mL at 4° C., Day 0) was 0.38%, the Main peak % ([4]; 20 mg/mL at 4° C., Day 0) was 99.6% and the HMW % ([4]; 20 mg/mL at 4° C., Day 7) was 0%. The LMW % ([4]; 20 mg/mL at 4° C., Day 7) was 0.49%, the Main peak % ([4]; 20 mg/mL at 4° C., Day 7) was 99.49% and the HMW % ([4]; 20 mg/mL at 4° C., Day 14) was 0%. For the same molecule, the LMW % ([4]; 20 mg/mL at 4° C., Day 14) was 0.44%, the Main peak % ([4]; 20 mg/mL at 4° C., Day 14) was 99.24% and the HMW % ([4]; 20 mg/mL at 37° C., Day 0) was 0%. For the same molecule, the LMW % ([4]; 20 mg/mL at 37° C., Day 0) was 0.38%, the Main peak % ([4]; 20 mg/mL at 37° C., Day 0) was 99.6% and the HMW % ([4]; 20 mg/mL at 37° C., Day 7) was 1.03%. It also gave an LMW % ([4]; 20 mg/mL at 37° C., Day 7) of 0.53%, a Main peak % ([4]; 20 mg/mL at 37° C., Day 7) of 98.38% and an HMW % ([4]; 20 mg/mL at 37° C., Day 14) of 1.81%. It also gave an LMW % ([4]; 20 mg/mL at 37° C., Day 14) of 0.55%, a Main peak % ([4]; 20 mg/mL at 37° C., Day 14) of 97.64% and an HMW % ([4]; 20 mg/mL at 40° C., Day 0) of 0.56%. It also gave an LMW % ([4]; 20 mg/mL at 40° C., Day 0) of 0.54%, a Main peak % ([4]; 20 mg/mL at 40° C., Day 0) of 98.83% and an HMW % ([4]; 20 mg/mL at 40° C., Day 14) of 2.26%. The LMW % ([4]; 20 mg/mL at 40° C., Day 14) was 0.84%, the Main peak % ([4]; 20 mg/mL at 40° C., Day 14) was 96.76% and the “physical and chemical stability” value ([4]; 4° C., 37° C. and 40° C., 2 weeks) was “high physical and chemical stability”. For the same molecule, the “AUC0-96 h” value [5] was 3.843 µM·h, the “Terminal t1/2” value [5] was 41 h and the “Tmax” value [5] was 16 h. The Cmax ([5]; read-out: Cmax (nmol/L)) was 56.2 nmol/L, the Cmax ([6]; read-out: Cmax (nmol/L), single sc dose 30 nmol/kg) was 120 nmol/L and the “AUC0-24 h” value ([6]; single sc dose 30 nmol/kg) was 2.1637 µM·h. The “Terminal t1/2” value ([6]; single sc dose 30 nmol/kg) was 15.9 h and the “Tmax” value ([6]; single sc dose 30 nmol/kg) was 16.0 h.
